Target: amyloid precursor protein C-terminal fragment (APP-CTF), P05067
Assay: co-immunoprecipitation, HEK293 cells, with 10 µM imatinib
Details: remark: other sources report otherwise

amyloid precursor protein C-terminal fragment (APP-CTF), P05067, sequence (P05067 672-770 limits assumed): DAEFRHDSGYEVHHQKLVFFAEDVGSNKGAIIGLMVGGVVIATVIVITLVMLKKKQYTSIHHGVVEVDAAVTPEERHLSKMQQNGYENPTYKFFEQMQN

reduction of the interaction by imatinib (10 µM): 47%
B1: gSAP-16K-HA (16 KDa C-terminal fragment, amino acid sequence 733-854, of gSAP with a C-terminal HA tag), A4D1B5 733-854 (protein, human, UniProt A4D1B5 733-854, looked up, not shown: small tags and cut ends)
chain: RLMKDLDNTEKNEKLKFSIIVRLPPLIGQKICRLWDHPMSSNIISRNHVTRLLQNYKKQPRNSMINKSSFSVEFLPLNYFIEILTDIESSNQALYPFEGHDNVDAEFVEEAALKHTAMLLGL

— patent US20130149309A1
